Measured values reported in patent US20260317399 (published 2026).
Where a chain is given by its changes, count along the chain named.

T1: FcgRIa (human, UniProt P12314)
T1 chain: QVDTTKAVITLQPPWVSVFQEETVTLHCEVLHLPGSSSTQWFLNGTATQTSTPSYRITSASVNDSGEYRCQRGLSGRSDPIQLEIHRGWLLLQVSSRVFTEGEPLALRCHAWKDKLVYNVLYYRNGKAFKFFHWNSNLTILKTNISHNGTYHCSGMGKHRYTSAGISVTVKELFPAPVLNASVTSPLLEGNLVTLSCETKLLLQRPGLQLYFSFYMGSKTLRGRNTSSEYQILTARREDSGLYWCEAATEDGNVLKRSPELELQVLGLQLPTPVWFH

T2: FcgRIIaH (human, UniProt P12318)
T2 chain: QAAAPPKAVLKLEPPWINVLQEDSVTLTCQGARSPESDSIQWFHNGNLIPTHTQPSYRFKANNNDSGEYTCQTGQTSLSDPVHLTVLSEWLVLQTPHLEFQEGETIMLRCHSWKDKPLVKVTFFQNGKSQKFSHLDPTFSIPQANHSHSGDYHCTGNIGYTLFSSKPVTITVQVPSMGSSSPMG

B1: BP557 (antibody)
chain 1: QVQLQESGPGLVKPSETLSLTCAVSGHSISHDHAWSWVRQPPGEGLEWIGFISYSGITNYNPSLQGRVTISRDNSKNTLYLQMNSLRAEDTAVYYCARSLARTTAMDYWGEGTLVTVSSASTKGPSVFPLAPSSKSTSGGTAALGCLVKDYFPEPVTVSWNSGALTSGVHTFPAVLQSSGLYSLSSVVTVPSSSLGTQTYICNVNHKPSNTKVDKKVEPKSCDKTHTCPPCPAPELLGDDSVFLFPPKPKDTLMISRTPEVTCVVVDVGDEDGEVKFNWYVDGVEVHNAKTKPREEQDNSTYRVVSVLTVLHQDWLNGKEYKCKVSNKALPRPIEKTISKAKGQPREPQVYTLPPSRDELTKNQVSLTCLVKGFYPSDIAVEWESNGQPENNYKTTPPVLDSDGSFFLYSKLTVDKSRWQQGNVFSCSVMHEALHNHYTQESLSLSP
chain 2: not shown
B2: IL6R-AP029/IL6R-BP410/IL6R-L (antibody)
chain 1: B1 chain 1 with E235D, G269S, D270E, D358K, H437R, E441K
chain 2: B1 chain 1 with E235D, L237T, G269S, D270E
chain 3: not shown
B3: IL6R-AP029/IL6R-BP408/IL6R-L (antibody)
chain 1: B1 chain 1 with E235D, G269S, D270E, D358K, H437R, E441K
chain 2: B1 chain 1 with E235D, L237Q, G269S, D270E
chain 3: not shown
B4: IL6R-AP029/IL6R-BP407/IL6R-L (antibody)
chain 1: B1 chain 1 with E235D, G269S, D270E, D358K, H437R, E441K
chain 2: B1 chain 1 with E235D, L237D, G269S, D270E
chain 3: not shown
B5: IL6R-BP408/IL6R-L (antibody)
chain 1: B1 chain 1 with E235D, L237Q, G269S, D270E
chain 2: not shown
B6: IL6R-BP404/IL6R-L (antibody)
chain 1: B1 chain 1 with E235D, L236Y, G269S, D270E
chain 2: not shown
B7: IL6R-AP029/IL6R-BP409/IL6R-L (antibody)
chain 1: B1 chain 1 with E235D, G269S, D270E, D358K, H437R, E441K
chain 2: B1 chain 1 with E235D, L237E, G269S, D270E
chain 3: not shown
B8: IL6R-BP419/IL6R-L (antibody)
chain 1: B1 chain 1 with E235D, L237F, G269S, D270E
chain 2: not shown
B9: IL6R-BP257/IL6R-L (antibody)
chain 1: B1 chain 1 with S126E, E235D, G269S, D298Y
chain 2: not shown
B10: IL6R-BP260/IL6R-L (antibody)
chain 1: B1 chain 1 with S126E, E235D, G269S
chain 2: not shown
B11: IL6R-BP256/IL6R-L (antibody)
chain 1: B1 chain 1 with S126D, E235D, G269S, D298Y
chain 2: not shown
B12: IL6R-BP259/IL6R-L (antibody)
chain 1: B1 chain 1 with S126D, E235D, G269S
chain 2: not shown
B13: IL6R-AP002/IL6R-BP257/IL6R-L (antibody)
chain 1: B1 chain 1 with E235D, G269S, D298Y, D358K, H437R, E441K
chain 2: B1 chain 1 with S126E, E235D, G269S, D298Y
chain 3: not shown
B14: IL6R-AP002/IL6R-BP256/IL6R-L (antibody)
chain 1: B1 chain 1 with E235D, G269S, D298Y, D358K, H437R, E441K
chain 2: B1 chain 1 with S126D, E235D, G269S, D298Y
chain 3: not shown
B15: IL6R-AP009/IL6R-BP260/IL6R-L (antibody)
chain 1: B1 chain 1 with E235D, G269S, D358K, H437R, E441K
chain 2: B1 chain 1 with S126E, E235D, G269S
chain 3: not shown
B16: IL6R-AP009/IL6R-BP259/IL6R-L (antibody)
chain 1: B1 chain 1 with E235D, G269S, D358K, H437R, E441K
chain 2: B1 chain 1 with S126D, E235D, G269S
chain 3: not shown

Molecular target: T1, FcgRIa
Assay: SPR

Binder	Kd [µM]
B1	0.013

Molecular target: T3, FcgRIIIaV (human, UniProt P08637)
Assay: SPR

T3 sequence (P08637 17-208 F176V): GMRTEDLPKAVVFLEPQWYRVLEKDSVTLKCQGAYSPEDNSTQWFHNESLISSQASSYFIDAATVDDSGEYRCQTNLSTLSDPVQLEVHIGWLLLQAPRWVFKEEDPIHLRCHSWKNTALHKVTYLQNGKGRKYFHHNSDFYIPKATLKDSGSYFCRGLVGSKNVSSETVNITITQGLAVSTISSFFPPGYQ

Binder	Kd [µM]
B2	21
B3	31
B4	23
B5	50
B6	33
B7	28
B8	38

Molecular target: T2, FcgRIIaH
Assay: SPR

Binder	Kd [µM]
B9	39
B10	3.9
B11	21
B12	18

Molecular target: T3, FcgRIIIaV
Assay: SPR
Remark: another data set of the same source

Binder	Kd [µM]
B13	14
B14	17
B9	19
B10	21
B11	11
B12	11
B15	16
B16	22

Molecular target: T2, FcgRIIaH
Assay: SPR
Remark: another data set of the same source

Binder	Kd [µM]
B2	5.1
B3	8.2
B4	8.9
B5	77
B6	3.4
B7	9.4
B8	38
